Assay results taken from paper PMC10229567.

Molecular target: LOXL3 (UniProt P58215)
Test: Co-IP of LOXL3 with LOXL3
Conditions: reference: wild type; sites S704

Sequence of UniProt P58215 (P58215 whole entry S704A): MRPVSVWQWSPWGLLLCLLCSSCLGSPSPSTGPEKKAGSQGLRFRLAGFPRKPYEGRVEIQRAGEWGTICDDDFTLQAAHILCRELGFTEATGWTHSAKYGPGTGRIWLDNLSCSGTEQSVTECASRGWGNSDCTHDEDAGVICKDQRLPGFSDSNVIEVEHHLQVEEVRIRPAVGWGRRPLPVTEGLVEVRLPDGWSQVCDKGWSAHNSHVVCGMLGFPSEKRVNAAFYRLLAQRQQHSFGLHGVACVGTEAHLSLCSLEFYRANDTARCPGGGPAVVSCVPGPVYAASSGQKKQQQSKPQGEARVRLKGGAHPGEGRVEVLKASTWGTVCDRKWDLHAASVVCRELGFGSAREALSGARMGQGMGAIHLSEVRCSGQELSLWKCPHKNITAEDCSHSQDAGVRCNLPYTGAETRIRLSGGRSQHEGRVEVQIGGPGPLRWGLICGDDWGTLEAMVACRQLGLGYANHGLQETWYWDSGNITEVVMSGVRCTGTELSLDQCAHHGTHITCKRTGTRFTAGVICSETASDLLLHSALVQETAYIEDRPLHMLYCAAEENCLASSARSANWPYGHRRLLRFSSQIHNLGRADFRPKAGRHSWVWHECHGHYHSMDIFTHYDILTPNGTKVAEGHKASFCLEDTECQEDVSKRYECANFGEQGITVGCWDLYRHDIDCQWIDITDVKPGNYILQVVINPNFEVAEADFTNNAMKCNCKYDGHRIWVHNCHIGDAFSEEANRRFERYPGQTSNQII

Substance: LOXL3 (from UniProt P58215) S704A
- binding against the reference: weaker
